# Test results as given in US20230331829A1 (KOREA ADVANCED INSTITUTE OF SCIENCE AND TECHNOLOGY, published 2023).
# T1: PROX1 protein of mouse retinal tissue (mouse, UniProt P48437 1-737)
# T1 construct: Endogenous protein
# T1 sequence (looked up): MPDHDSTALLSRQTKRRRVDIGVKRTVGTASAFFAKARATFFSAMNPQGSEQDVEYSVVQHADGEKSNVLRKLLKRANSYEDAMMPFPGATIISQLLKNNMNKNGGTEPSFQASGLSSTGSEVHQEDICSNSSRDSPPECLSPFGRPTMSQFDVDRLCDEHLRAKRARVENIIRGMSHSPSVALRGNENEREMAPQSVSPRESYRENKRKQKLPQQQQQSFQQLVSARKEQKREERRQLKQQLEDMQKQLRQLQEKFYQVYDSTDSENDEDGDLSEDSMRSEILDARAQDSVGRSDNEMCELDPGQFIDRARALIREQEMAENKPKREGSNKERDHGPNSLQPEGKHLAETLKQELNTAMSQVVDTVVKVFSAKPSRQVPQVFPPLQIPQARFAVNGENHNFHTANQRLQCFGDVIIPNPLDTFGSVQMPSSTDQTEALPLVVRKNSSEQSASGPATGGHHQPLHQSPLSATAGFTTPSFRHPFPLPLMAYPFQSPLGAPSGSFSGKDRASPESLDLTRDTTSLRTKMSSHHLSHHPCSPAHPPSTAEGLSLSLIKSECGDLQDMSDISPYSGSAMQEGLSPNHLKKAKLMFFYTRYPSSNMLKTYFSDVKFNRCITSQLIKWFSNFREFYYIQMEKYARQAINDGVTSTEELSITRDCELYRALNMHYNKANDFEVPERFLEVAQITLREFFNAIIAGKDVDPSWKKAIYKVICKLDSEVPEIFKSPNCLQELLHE
# B1: anti-PROX1-single chain Fv-His (clone #1A11) (scFv, V domains shown)
# VH: AVTLDESGGGLQTPGGGLSLVCKASGFTFSSYAMNWVRQAPGKGLEWVAAIDDDGSYTGYGSAVKGRATISRDNGQSTVRLQLNNLRAEDTAIYYCAKAAGSGYCYRGANSSYTCGTYNAGDIDAWGHGTEVIVSS
# VL: LTQPSSVSANLGETVEITCSGGSGSYGWYQQKSPGSAPVTLIYDNANRPSNIPSRFSGSKSGSTGTLTITGVRAEDEAVYYCGNVDSSTYVGMFGAGTTLTVL
# notes: One polypeptide (scFv from a chicken antibody phage display library) with a hexa-histidine tag; used as phage periplasmic supernatant; also called anti-PROX1-scFv-His; scFv-His
# Target: T1, PROX1 protein of mouse retinal tissue
# Test: immunoprecipitation with Ni-NTA beads from mouse retinal tissue lysate, Western blot
# Protocol: Protein samples were prepared from mice cortex tissue not expressing PROX1 protein and mouse retinal tissue expressing PROX1 protein and PROX1 neutralizing single chain antibody (anti-PROX1-scFv-His) at 4° C. for 16 hours, followed by Ni-NTA beads for 4 hours. Thereafter, the Ni-NTA bead immune complex was washed five times with a washing buffer (50 mM imidazole and protease inhibitor) and a Western blot experiment was performed to confirm the binding ability of the single chain antibody to the PROX1 protein.
# Thereafter, the Ni-NTA bead immune complex was washed 5 times with a washing buffer (50 mM imidazole and protease inhibitor) and a Western blot experiment was performed to confirm the binding ability of the PROX1 neutralizing single chain antibody to the PROX1 protein (see FIG. 1).
binder,measurement,value
B1,binding result,binds
